Entries after “also recorded” stand apart in the source; their conditions may differ. No end group written: not given here. *: point of attachment. Myristyl = CCCCCCCCCCCCCC*
Biological target: T1, complex of PDL1 (unmodified) and IMPα1 (Homo sapiens, UniProt P52292)
T1 construct: endogenous in cells; host or cells: MDA-MB-231
Assay: DUOLINK proximity assay PDL1 (unmodified) and IMPα1, MDA-MB-231
Assay type: cell-based
Settings: for complex of PDL1 (unmodified) and IMPα1 (DUOLINK): MDA-MB-231
Procedure: To characterize unmodified PDL1 and IMPα1, MDA-MB-231 cells or CT26 cells were treated with vehicle control, DL-2-batch 1, DL-2-batch 2 or linear PDL1. Cells were permeabilised and were probed with the DUOLINK ligation assay. Cover slips were mounted on glass microscope slides with ProLong nucblue glass Antifade reagent (Life Technologies). PDL1 (unmodified) and IMPα1 DUOLINK Digital images were analysed using ImageJ software (ImageJ, NIH, Bethesda, MD, USA) and graphs represent the mean DOT Fluorescent Intensity in the nucleus or the cytoplasm compartments with significant differences calculated as per One-Way ANOVA comparison.
(A) CT26, 4T1 or MDA-MB-231 Cells were treated with inhibitors for 72 hours. Following inhibition, media was removed and replaced with WST-1 cell proliferation reagent. Absorbance was recorded at 450 nm after 1 hour. Data represent a single independent experiment performed in triplicate. Results are graphed as mean +/− standard error (SE). B) MDA-MB-231 or CT26 cancer cells were treated with vehicle control, DL-2-Batch 1 (original stock), DL-2-Batch 2 (current stock), DL-2-TBAB or linear PDL1. Cells were permeabilised and were probed with the DUOLINK ligation assay. Cover slips were mounted on glass microscope slides with ProLong nucblue glass Antifade reagent (Life Technologies). PDL1Ac and IMPα1 DUOLINK Digital images were analysed using ImageJ software (ImageJ, NIH, Bethesda, MD, USA) and graphs represent the mean DOT Fluorescent Intensity in the nucleus or the cytoplasm compartments with significant differences calculated as per one-way ANOVA comparison. […] PDL1-unmodified and IMPα1 DUOLINK digital images were analysed using ImageJ software (ImageJ, NIH, Bethesda, MD, USA) and graphs represent the mean DOT fluorescent intensity in the nucleus or the cytoplasm compartments with significant differences calculated as per one-way ANOVA comparison.
MDA-MB-231 and CT26 cells were treated with vehicle control, DL-2-Batch 1, DL-2-Batch 2, DL-2-TBAB (TBAB scaffold), DL-2-D (D-Isomer) or linear PDL1. […] PDL1 (unmodified) and IMPα1 and PDL1-PTM1 and IMPα1 DUOLINK digital images were analysed using ImageJ software (ImageJ, NIH, Bethesda, MD, USA) and graphs represent the mean DOT Fluorescent Intensity in the nucleus or the cytoplasm compartments with significant differences calculated as per One-Way ANOVA comparison. […]
MDA-MB-231 cells were treated with vehicle control (hollow nanoparticle), DL-2-NP at a concentration of 10 nM to 0.3 nM. […] PDL1 (unmodified) & IMPα1 DUOLINK digital images were analysed using ImageJ software (ImageJ, NIH, Bethesda, MD, USA) and graphs represent the mean DOT Fluorescent Intensity in the nucleus or the cytoplasm compartments with significant differences calculated as per One-WayANOVA comparison.

Molecule | complex of PDL1 (unmodified) and IMPα1 (DUOLINK) | complex of PDL1 (unmodified) and IMPα1 (DUOLINK) (listed as linear PDL1 peptide) | IC50 (MDA-MB-231, DUOLINK, read-out: IC50 for abrogating the PDL1 and IMPα1 complex) [nM]
LTFIFRLRKGRMMDVKK (Myristyl-LTFIFRLRKGRMMDVKK) [PDL1-L1, Myristyl- linear peptide, prototype] | unable to significantly impact the complex; also recorded: no change | unable to significantly inhibit this complex | 
CCCCCCCCCCCCCC(=O)NC(C)C(=O)NC1CSCc2cc3cc(c2)CSC[C@H](NC(=O)[C@H](Cc2ccccc2)NC(=O)[C@H](C(C)CC)NC(=O)[C@H](Cc2ccccc2)NC(=O)[C@H]([C@@H](C)O)NC(=O)C(CC(C)C)NC1=O)C(=O)N[C@@H](CCCNC(C)=N)C(=O)N[C@@H](CC(C)C)C(=O)N[C@@H](CCCNC(=N)N)C(=O)N[C@@H](CCCCN)C(=O)NCC(=O)N[C@@H](CCCNC(=N)N)C(=O)NC(C(=O)N[C@@H](CCSC)C(=O)NC(CCSC)C(=O)N[C@@H](CC(=O)O)C(=O)NC(C(=O)N[C@@H](CCCCN)C(=O)NC(CCCCN)C(=O)O)C(C)C)CSC3 (mixture of isomers) [DL-2] | able to abrogate the complex |  | 39

From patent US20240117005A1, “NOVEL BICYCLIC PEPTIDES” (THE COUNCIL OF THE QUEENSLAND INSTITUTE OF MEDICAL RESEARCH, priority 2021, published 2024)
